Measured values reported in patent US20250027068.
Substitutions are numbered along the chain they refer to.

Target: pooled human IgG (human IgG1,2,3 and 4)

B1: PRT-312 (protein)
chain: MQITSVWTKGVTPLTPEQFRENNEDVIHAPYLAHQGWYDITKAFDGKDNLLCGAATAGNMLHWWFDQNKTEIEAYLSKHPEKQKIIFGNQELFDLKAAIDTKDSQTNSQLFNYFRDKAFPNLSARQLGVMPDLVLDMFINGYYLNVGKTQSTDVNRPYQDKDKRGGIFDAVFTRGDQTTLLTARHDLKNKGLNDISTIIKQELTEGRALALSHTYANVSISHVINLWGADFNAEGNLEAIYVTDSDANPSIGMKKYFVGRNAHGHVAISAKKIEGENIGAQVLGLFTLSSGKDIWQKLS
Enzyme Activity Endpoint Assay (purified): Fab'2: 703 ng/µL | Enzyme Activity Endpoint Assay (purified): Fc: 330 ng/µL | Enzyme Activity Endpoint Assay (purified): IgG: 53 ng/µL | Enzyme Activity Endpoint Assay (purified): scIgG: 54 ng/µL

B2: PRT-296 (protein)
chain: MVTSVWTKGVTPPADFTQGEDVFHAPYVANQGWYDITKEFNGKDDLLCGAATAGNMLHWWFDQNKEYIEAYLKKHPEKQKIMFGDQELLDVRKAINTKGSQKNSELFNYFRDKAFPNLSARRLGVMPDLVLDMFINGYYLNVTKTQTTDVNRTYQEKDKRGGIFDAVFTRGDQSKLLTSRHDFKEKGLKEISDLIKQELTEGKALGLSHTYANVRIGHVINLWGADFDSDGNLKAIYVTDSDSNASIGMKKYGVGVNSAGKVAISAKEIKEDNIGAQVLGLFTLSTGQDIWNQTN
Enzyme Activity Endpoint Assay (purified): Fab'2: 955 ng/µL | Enzyme Activity Endpoint Assay (purified): Fc: 443 ng/µL | Enzyme Activity Endpoint Assay (purified): IgG: 0 ng/µL | Enzyme Activity Endpoint Assay (purified): scIgG: 0 ng/µL

B3: PRT-304 (protein)
chain: B2 chain with A14T, T17I, Q18K, V28D, N30G, E39T, G217S, G253F, A259S
Enzyme Activity Endpoint Assay (purified): Fab'2: 711 ng/µL | Enzyme Activity Endpoint Assay (purified): Fc: 320 ng/µL | Enzyme Activity Endpoint Assay (purified): IgG: 0 ng/µL | Enzyme Activity Endpoint Assay (purified): scIgG: 0 ng/µL

B4: PRT-366 (protein)
chain: MSQTEDSESLQRLRDIEDFQAEKEKQNVVYTKWLDGVDVKDHDFRKIVDGNSAYYATPLLNGRGFYDINKDFNRDNDKCAAAVAANMFHYWLDRNRDNVDRFLRQNPEKHGIIELPDGQLKLSDFLNTYESDDGYRDKSKLFDFISNNFNGPVWTDKLLDNYINGYAYNYKYGRTIEDSTKNTSKINFFKEVFNEKILTNNHSIRNQNEFSVLLSEALYTGKAIGLSYGPAGLRHSLGHIISVWGADLDADGNVVAIYVTDSDDKKLTIGDERVGLKRYKISTDDEGRLRLTAYEETHNTGGQVRGLWTLDTGKQAWADYFDKTEQTGTDQAEQ
Enzyme Activity Endpoint Assay (purified): Fab'2: 0 ng/µL | Enzyme Activity Endpoint Assay (purified): Fc: 122 ng/µL | Enzyme Activity Endpoint Assay (purified): IgG: 777 ng/µL | Enzyme Activity Endpoint Assay (purified): scIgG: 472 ng/µL

B5: PRT-319 (protein)
chain: MTITSVWTKGVTPPTPEDFRENNEDVLHAPYVANQGWYDITKTFDGKDNLLCGAATAGNMLHWWFDQNKEEIERYLKKHPEKQKIIFNNQELFDVKAAIDTKDSQTNSKLFDYFRDKAFPNLSARQLGVMPDLVLDMFINGYYLNLGKTQSTDVNRPYQDKDKRGGIFDAVFTRGDQTTLLTARHDLKNKGLNEISDLIKQELTEGKALALSHTYANVRINHVINLWGADFDAEGNLIAIYVTDSDANASIGMKKYFVGRNANGKVAISAKKIEGDNIGAQVLGLFTLSLGQDIWQKLS
Enzyme Activity Endpoint Assay (purified): Fab'2: 670 ng/µL | Enzyme Activity Endpoint Assay (purified): Fc: 372 ng/µL | Enzyme Activity Endpoint Assay (purified): IgG: 32 ng/µL | Enzyme Activity Endpoint Assay (purified): scIgG: 0 ng/µL

B6: PRT-327 (protein)
chain: B5 chain with N236E, A249P, L290T
Enzyme Activity Endpoint Assay (purified): Fab'2: 460 ng/µL | Enzyme Activity Endpoint Assay (purified): Fc: 338 ng/µL | Enzyme Activity Endpoint Assay (purified): IgG: 472 ng/µL | Enzyme Activity Endpoint Assay (purified): scIgG: 0 ng/µL

B7: PRT-344 (protein)
chain: B5 chain with V32L, T43A, N88G, R219S, N236E, I238E, A249P, N263H, L290T, I294Q
Enzyme Activity Endpoint Assay (purified): Fab′2: 562 ng/µL | Enzyme Activity Endpoint Assay (purified): Fc: 335 ng/µL | Enzyme Activity Endpoint Assay (purified): IgG: 0 ng/µL | Enzyme Activity Endpoint Assay (purified): scIgG: 218 ng/µL

B8: PRT-328 (protein)
chain: B5 chain with E21K, D112N, N121G, M130F, D176V, L290T
Enzyme Activity Endpoint Assay (purified): Fab'2: 1000 ng/µL | Enzyme Activity Endpoint Assay (purified): Fc: 455 ng/µL | Enzyme Activity Endpoint Assay (purified): IgG: 75 ng/µL | Enzyme Activity Endpoint Assay (purified): scIgG: 0 ng/µL

B9: PRT-320 (protein)
chain: B5 chain with N88G, L290T, I294Q
Enzyme Activity Endpoint Assay (purified): Fab'2: 778 ng/µL | Enzyme Activity Endpoint Assay (purified): Fc: 339 ng/µL | Enzyme Activity Endpoint Assay (purified): IgG: 53 ng/µL | Enzyme Activity Endpoint Assay (purified): scIgG: 0 ng/µL

B10: PRT-336 (protein)
chain: B5 chain with N121G, M130F, D176V, N236E, A249P, L290T
Enzyme Activity Endpoint Assay (purified): Fab'2: 50 ng/µL | Enzyme Activity Endpoint Assay (purified): Fc: 264 ng/µL | Enzyme Activity Endpoint Assay (purified): IgG: 370 ng/µL | Enzyme Activity Endpoint Assay (purified): scIgG: 965 ng/µL

B11: PRT-342 (protein)
chain: B5 chain with V32L, T43A, N88G, D112N, R219S, I238E, A249P, N263H, L290T
Enzyme Activity Endpoint Assay (purified): Fab'2: 15 ng/µL | Enzyme Activity Endpoint Assay (purified): Fc: 209 ng/µL | Enzyme Activity Endpoint Assay (purified): IgG: 206 ng/µL | Enzyme Activity Endpoint Assay (purified): scIgG: 841 ng/µL

B12: PRT-335 (protein)
chain: B5 chain with N88G, N121G, M130F, D176V, N236E, A249P, L290T, I294Q
Enzyme Activity Endpoint Assay (purified): Fab'2: 38 ng/µL | Enzyme Activity Endpoint Assay (purified): Fc: 154 ng/µL | Enzyme Activity Endpoint Assay (purified): IgG: 74 ng/µL | Enzyme Activity Endpoint Assay (purified): scIgG: 514 ng/µL

B13: PRT-343 (protein)
chain: B5 chain with V32L, T43A, N88G, R219S, N236E, I238E, A249P, N263H, L290T
Enzyme Activity Endpoint Assay (purified): Fab'2: 154 ng/µL | Enzyme Activity Endpoint Assay (purified): Fc: 266 ng/µL | Enzyme Activity Endpoint Assay (purified): IgG: 129 ng/µL | Enzyme Activity Endpoint Assay (purified): scIgG: 682 ng/µL

B14: PRT-334 (protein)
chain: B5 chain with N88G, N121G, M130F, D176V, N236E, A249P, L290T
Enzyme Activity Endpoint Assay (purified): Fab'2: 59 ng/µL | Enzyme Activity Endpoint Assay (purified): Fc: 257 ng/µL | Enzyme Activity Endpoint Assay (purified): IgG: 154 ng/µL | Enzyme Activity Endpoint Assay (purified): scIgG: 738 ng/µL

B15: PRT-350 (protein)
chain: MSQTEDSESLQRLRDIEDFQAEKKDQNVVYTKWLDGVDVKDHDFRKIVDGNSAYYATPLLNGRGWYDINKDFNRDSDKCAAAVAANMFHYWLDINRDNVDRFLRQNPEKHGIIELPDGQLKLSDFLNTYESDHGYRDKSKLFDFISENFNGPVWTDKLLDNYINGYAYNYKYGRTIEDPTKNTSKINFFKEVFNEKILTNNHSIRNQNEFSVLLIEALYTGKAIGLSYGPAGLRHSLGHIISVWGADLDADGNVVAIYVTDSDDKKLTIGDERVGLKRYKISTDDENRLRLTAYEETHNTGGQVRGLWTLDTGKYAWADYFDKTEQTGTDQAEQ
Enzyme Activity Endpoint Assay (purified): Fab'2: 520 ng/µL | Enzyme Activity Endpoint Assay (purified): Fc: 243 ng/µL | Enzyme Activity Endpoint Assay (purified): IgG: 668 ng/µL | Enzyme Activity Endpoint Assay (purified): scIgG: 200 ng/µL

B16: PRT-358 (protein)
chain: B15 chain with S52I, I94R, H133D, N287G, Y315Q
Enzyme Activity Endpoint Assay (purified): Fab'2: 8 ng/µL | Enzyme Activity Endpoint Assay (purified): Fc: 90 ng/µL | Enzyme Activity Endpoint Assay (purified): IgG: 86 ng/µL | Enzyme Activity Endpoint Assay (purified): scIgG: 375 ng/µL

B17: PRT-360 (protein)
chain: B15 chain with I94R, H133D, N287G, Y315Q
Enzyme Activity Endpoint Assay (purified): Fab′2: 89 ng/µL | Enzyme Activity Endpoint Assay (purified): Fc: 241 ng/µL | Enzyme Activity Endpoint Assay (purified): IgG: 191 ng/µL | Enzyme Activity Endpoint Assay (purified): scIgG: 684 ng/µL

B18: PRT-352 (protein)
chain: B15 chain with D25M, W65F, Y170S, S236G, V304I
Enzyme Activity Endpoint Assay (purified): Fab′2: 229 ng/µL | Enzyme Activity Endpoint Assay (purified): Fc: 302 ng/µL | Enzyme Activity Endpoint Assay (purified): IgG: 281 ng/µL | Enzyme Activity Endpoint Assay (purified): scIgG: 599 ng/µL

B19: PRT-367 (protein)
chain: B4 chain with F65W
Enzyme Activity Endpoint Assay (purified): Fab'2: 351 ng/µL | Enzyme Activity Endpoint Assay (purified): Fc: 361 ng/µL | Enzyme Activity Endpoint Assay (purified): IgG: 100 ng/µL | Enzyme Activity Endpoint Assay (purified): scIgG: 518 ng/µL

B20: PRT-359 (protein)
chain: B4 chain with E24K, K25D, S52I, F65L, N76S, N147E, S179P, F210L
Enzyme Activity Endpoint Assay (purified): Fab'2: 260 ng/µL | Enzyme Activity Endpoint Assay (purified): Fc: 340 ng/µL | Enzyme Activity Endpoint Assay (purified): IgG: 202 ng/µL | Enzyme Activity Endpoint Assay (purified): scIgG: 677 ng/µL

B21: PRT-351 (protein)
chain: B15 chain with D25M, W65F, V304I
Enzyme Activity Endpoint Assay (purified): Fab'2: 37 ng/µL | Enzyme Activity Endpoint Assay (purified): Fc: 191 ng/µL | Enzyme Activity Endpoint Assay (purified): IgG: 86 ng/µL | Enzyme Activity Endpoint Assay (purified): scIgG: 638 ng/µL
